According to publication PMC6308133:

Target: yeast Nsp1p FG-fragment Nsp1p-12FF (residues 262-492; 1xFG, 11xFSFG) (yeast) (UniProt P14907)
Test: plasmonic nanopore sensing (shift of the extinction dip); cNsp1 grafted to the interior silicon nitride walls of smaller nanopores (upper diameter 80-90 nm, lower 50-60 nm); Kapβ1 added in increasing concentrations in PBS; equilibrium dip shift averaged over ~10 min; fit to a two component Langmuir isotherm

K1 (two component Langmuir isotherm, configuration 1): 341 nM
K2 (two component Langmuir isotherm, configuration 2): 3.8 µM
Substance: karyopherinβ1 (from UniProt Q14974 1-876) (natural protein)
